# In patent US9637764B2, “Methods of producing 7-carbon chemicals via carbon chain elongation associated with cyclohexane carboxylate synthesis” (INVISTA North America S.á r.l., priority 2012, dated 2017):
# How the values were obtained:
# Type in all cases: biochemical
# [1] = Carboxylate reductase activity assay, pimelate to pimelate semialdehyde (NADPH consumption, absorbance at 340 nm); details: purified enzyme enhanced by the gene product of sfp, 2 mM pimelate, 1 mM ATP, 1 mM NADPH, pH=7.5, room temperature, 20 min; against the empty vector control; FIG. 10
# Procedure: A sequence encoding a HIS-tag was added to the genes from Segniliparus rugosus and Segniliparus rotundus that encode the carboxylate reductases of SEQ ID NOs: 4 and 7, respectively (see FIGS. 7C and 7F), such that N-terminal HIS tagged carboxylate reductases could be produced. Each of the modified genes was cloned into a pET Duet expression vector along with a sfp gene encoding a HIS-tagged phosphopantetheine transferase from Bacillus subtilis, both under the T7 promoter. Each expression vector was transformed into a BL21[DE3] E. coli host and the resulting recombinant E. coli strains were cultivated at 37° C. in a 250 mL shake flask culture containing 50 mL LB media and antibiotic selection pressure, with shaking at 230 rpm. Each culture was induced overnight at 37° C. using an auto-induction media.
# The pellet from each induced shake flask culture was harvested via centrifugation. Each pellet was resuspended and lysed via sonication, and the cell debris was separated from the supernatant via centrifugation. […]
# Enzyme activity assays (i.e., from pimelate to pimelate semialdehyde) were performed in triplicate in a buffer composed of a final concentration of 50 mM HEPES buffer (pH=7.5), 2 mM pimelate, 10 mM MgCl2, 1 mM ATP and 1 mM NADPH. […] The consumption of NADPH was monitored by absorbance at 340 nm.
# [2] = Thioesterase enzyme activity assay, pimeloyl-CoA to pimelate (release of Coenzyme A, Ellman's reagent, absorbance at 412 nm); details: 667 μM pimeloyl-CoA, 0.8 μM enzyme, pH=7.4, 37° C., 20 min; compared to the empty vector control; FIG. 8
# Procedure: A sequence encoding an N-terminal His tag was added to the tesB gene from Escherichia coli that encodes a thioesterase (SEQ ID NO 1, see FIG. 7A), such that an N-terminal HIS tagged thioesterase could be produced. The modified tesB gene was cloned into a pET15b expression vector under control of the T7 promoter. The expression vector was transformed into a BL21[DE3] E. coli host. The resulting recombinant E. coli strain was cultivated at 37° C. in a 500 mL shake flask culture containing 50 mL Luria Broth (LB) media and antibiotic selection pressure, with shaking at 230 rpm. The culture was induced overnight at 17° C. using 0.5 mM IPTG.
# The pellet from the induced shake flask culture was harvested via centrifugation. The pellet was resuspended and lysed in Y-Per™ solution (ThermoScientific, Rockford, Ill.). The cell debris was separated from the supernatant via centrifugation. […]
# The enzyme activity assay was performed in triplicate in a buffer composed of 50 mM phosphate buffer (pH=7.4), 0.1 mM Ellman's reagent, and 667 μM of pimeloyl-CoA (as substrate). […] The release of Coenzyme A was monitored by absorbance at 412 nm. The absorbance associated with the substrate only control, which contained boiled enzyme, was subtracted from the active enzyme assay absorbance and compared to the empty vector control.
# [3] = Carboxylate reductase activity assay, N7-acetyl-7-aminoheptanoate to N7-acetyl-7-aminoheptanal (NADPH consumption, absorbance at 340 nm); details: purified enzyme enhanced by the gene product of sfp, 2 mM N7-acetyl-7-aminoheptanoate, 1 mM ATP, 1 mM NADPH, pH=7.5, room temperature, 20 min; against the empty vector control; FIG. 12
# Procedure: The activity of each of the N-terminal His-tagged carboxylate reductases of SEQ ID NOs: 3, 6, and 7 (see Examples 4, and FIGS. 7B, 7E, and 7F) for converting N7-acetyl-7-aminoheptanoate to N7-acetyl-7-aminoheptanal was assayed in triplicate in a buffer composed of a final concentration of 50 mM HEPES buffer (pH=7.5), 2 mM N7-acetyl-7-aminoheptanoate, 10 mM MgCl2, 1 mM ATP, and 1 mM NADPH. The assays were initiated by adding purified carboxylate reductase and phosphopantetheine transferase or the empty vector control to the assay buffer containing the N7-acetyl-7-aminoheptanoate then incubated at room temperature for 20 min. The consumption of NADPH was monitored by absorbance at 340 nm.
molecule,measurement,setting,value
"SEQ ID NO 4: Segniliparus rugosus carboxylate reductase, Genbank Accession No. EFV11917.1 (protein, listed as Segniliparus rugosus) MGDGEERAKRFFQRIGELSATDPQFAAAAPDPAVVEAVSDPSLSFTRYLDTLMRGYAERPALAHRVGAGYETISYGELWARVGAIAAAWQADGLAPGDFVATVGFTSPDYVAVDLAAARSGLVSVPLQAGASLAQLVGILEETEPKVLAASASSLEGAVACALAAPSVQRLVVFDLRGPDASESAADERRGALADAEEQLARAGRAVVVETLADLAARGEALPEAPLFEPAEGEDPLALLIYTSGSTGAPKGAMYSQRLVSQLWGRTPVVPGMPNISLHYMPLSHSYGRAVLAGALSAGGTAHFTANSDLSTLFEDIALARPTFLALVPRVCEMLFQESQRGQDVAELRERVLGGRLLVAVCGSAPLSPEMRAFMEEVLGFPLLDGYGSTEALGVMRNGIIQRPPVIDYKLVDVPELGYRTTDKPYPRGELCIRSTSLISGYYKRPEITAEVFDAQGYYKTGDVMAEIAPDHLVYVDRSKNVLKLSQGEFVAVAKLEAAYGTSPYVKQIFVYGNSERSFLLAVVVPNAEVLGARDQEEAKPLIAASLQKIAKEAGLQSYEVPRDFLIETEPFTTQNGLLSEVGKLLRPKLKARYGEALEARYDEIAHGQADELRALRDGAGQRPVVETVVRAAVAISGSEGAEVGPEANFADLGGDSLSALSLANLLHDVFEVEVPVRIIIGPTASLAGIAKHIEAERAGASAPTAASVHGAGATRIRASELTLEKFLPEDLLAAAKGLPAADQVRTVLLTGANGWLGRFLALEQLERLARSGQDGGKLICLVRGKDAAAARRRIEETLGTDPALAARFAELAEGRLEVVPGDVGEPKFGLDDAAWDRLAEEVDVIVHPAALVNHVLPYHQLFGPNVVGTAEIIRLAITAKRKPVTYLSTVAVAAGVEPSSFEEDGDIRAVVPERPLGDGYANGYGNSKWAGEVLLREAHELVGLPVAVFRSDMILAHTRYTGQLNVPDQFTRLVLSLLATGIAPKSFYQQGAAGERQRAHYDGIPVDFTAEAITTLGAEPSWFDGGAGFRSFDVFNPHHDGVGLDEFVDWLIEAGHPISRIDDHKEWFARFETAVRGLPEAQRQHSLLPLLRAYSFPHPPVDGSVYPTGKFQGAVKAAQVGSDHDVPHLGKALIVKYADDLKALGLL",carboxylate reductase activity for converting pimelate to pimelate semialdehyde,[1],accepted pimelate as substrate
"tesB: Escherichia coli thioesterase encoded by tesB, GenBank Accession No. AAA24665.1 (protein, listed as Escherichia coli) MSQALKNLLTLLNLEKIEEGLFRGQSEDLGLRQVFGGQVVGQALYAAKETVPEERLVHSFHSYFLRPGDSKKPIIYDVETLRDGNSFSARRVAAIQNGKPIFYMTASFQAPEAGFEHQKTMPSAPAPDGLPSETQIAQSLAHLLPPVLKDKFICDRPLEVRPVEFHNPLKGHVAEPHRQVWIRANGSVPDDLRVHQYLLGYASDLNFLPVALQPHGIGFLEPGIQIATIDHSMWFHRPFNLNEWLLYSVESTSASSARGFVRGEFYTQDGVLVASTVQEGVMRNHN",thioesterase activity for converting pimeloyl-CoA to pimelate,[2],accepted pimeloyl-CoA as substrate
"SEQ ID NO 6: Mycobacterium massiliense carboxylate reductase, Genbank Accession No. EIV11143.1 (protein, Mycobacterium massiliense) MTNETNPQQEQLSRRIESLRESDPQFRAAQPDPAVAEQVLRPGLHLSEAIAALMTGYAERPALGERARELVIDQDGRTTLRLLPRFDTTTYGELWSRTTSVAAAWHHDATHPVKAGDLVATLGFTSIDYTVLDLAIMILGGVAVPLQTSAPASQWTTILAEAEPNTLAVSIELIGAAMESVRATPSIKQVVVFDYTPEVDDQREAFEAASTQLAGTGIALETLDAVIARGAALPAAPLYAPSAGDDPLALLIYTSGSTGAPKGAMHSENIVRRWWIREDVMAGTENLPMIGLNFMPMSHIMGRGTLTSTLSTGGTGYFAASSDMSTLFEDMELIRPTALALVPRVCDMVFQRFQTEVDRRLASGDTASAEAVAAEVKADIRDNLFGGRVSAVMVGSAPLSEELGEFIESCFELNLTDGYGSTEAGMVFRDGIVQRPPVIDYKLVDVPELGYFSTDKPHPRGELLLKTDGMFLGYYKRPEVTASVFDADGFYMTGDIVAELAHDNIEIIDRRNNVLKLSQGEFVAVATLEAEYANSPVVHQIYVYGSSERSYLLAVVVPTPEAVAAAKGDAAALKTTIADSLQDIAKEIQLQSYEVPRDFIIEPQPFTQGNGLLTGIAKLARPNLKAHYGPRLEQMYAEIAEQQAAELRALHGVDPDKPALETVLKAAQALLGVSSAELAADAHFTDLGGDSLSALSFSDLLRDIFAVEVPVGVIVSAANDLGGVAKFVDEQRHSGGTRPTAETVHGAGHTEIRAADLTLDKFIDEATLHAAPSLPKAAGIPHTVLLTGSNGYLGHYLALEWLERLDKTDGKLIVIVRGKNAEAAYGRLEEAFDTGDTELLAHFRSLADKHLEVLAGDIGDPNLGLDADTWQRLADTVDVIVHPAALVNHVLPYNQLFGPNVVGTAEIIKLAITTKIKPVTYLSTVAVAAYVDPTTFDEESDIRLISAVRPIDDGYANGYGNAKWAGEVLLREAHDLCGLPVAVFRSDMILAHSRYTGQLNVPDQFTRLILSLIATGIAPGSFYQAQTTGERPLAHYDGLPGDFTAEAITTLGTQVPEGSEGFVTYDCVNPHADGISLDNFVDWLIEAGYPIARIDNYTEWFTRFDTAIRGLSEKQKQHSLLPLLHAFEQPSAAENHGVVPAKRFQHAVQAAGIGPVGQDGTTDIPHLSRRLIVKYAKDLEQLGLL",carboxylate reductase activity for converting N7-acetyl-7-aminoheptanoate to N7-acetyl-7-aminoheptanal,[3],accepted N7-acetyl-7-aminoheptanoate as substrate
